These results are taken from patent publication US20030049729A1.

The experiment concerns the target plasminogen. Kind of experiment: cell-based or functional assay.

In turn, “Bacteriophages which harbored K2S on gpIII (K2S-phi; printed with a garbled symbol as K2S-?) (from UniProt P00750 209-562)” returned a fibrinogen-dependent enzymatic activity of less than 0.25 IU/ml.
